Source: publication PMC4477602 (Journal of Biological Engineering, 2015)

Molecular target: T1, Wild type Clone A, soluble, C-terminal His6
T1 chain: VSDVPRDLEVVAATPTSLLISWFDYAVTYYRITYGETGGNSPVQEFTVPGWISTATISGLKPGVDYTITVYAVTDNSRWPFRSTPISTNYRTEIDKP
Experiment: SEC; Superdex 75 10/300 GL, PBS pH 7.4, samples after Co2+ affinity resin; self-association (monomer, dimer, high MW oligomer in the void volume)
Settings: both partners purified

stoichiometry N: 2
B1: Wild type Clone A, soluble, C-terminal His6 (designed binder)
chain: T1 chain
modifications: Glu47 (printed 45) taken from the text's description of wild type CA; Fig. S2 prints Asp / Glu47 (printed 45) taken from the text's description of wild type CA; Fig. S2 prints Asp
